Test results as given in paper PMC3282893.

Biological target: human IgG1 (solid phase in surface plasmon resonance) (human)
Assay: SPR

Substance “soluble recombinant FcγRIIa-HR (high-responder, arginine R134 allele of FcγRIIa), glycosylated (from UniProt P12318 37-206) (receptor)” has a Kd of 500 µM.
